Assay: yeast display, Sf9 membrane polyspecificity reagent, FACS + sequencing; frameworks hold sequencing errors
Procedure, shortened: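 Using colony PCR, genes from sorted yeast display clones were amplified, then sequenced on MiSeq at 2 × 250 and filtered by CDR length. The clones had been stained with 10% biotinylated, detergent-solubilized Sf9 membrane reagent for 1 hour at 4 °C and sorted by FACS into low and high (top ~1%) gates on anti-HA and streptavidin fluorescence. Polyreactivity labels come from the gate of origin.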

Which “polyreactivity (PSR sort gate)” value does the source give for “QVQLVESGGGLVQAGGSLRLSCAASGSTFDYYAMGWYRQAPGKERELVAAITGTGGSTYYADSVKGRFTISRDNAKNTVYLQMNSLKPEDTAVYYCAADTYLGWSYYWGQGTQVTVSS” here?
Its value is “high polyreactivity”.

For “QVQLVESGGGLVQAGGSLRLSCAASGSTFDYYDMGWYRQAPGKERELVAAINWSGGSTYYADSVKGRFTISRDNAKNTVYLQMNSLKPEDTAVYYCAADLSSRGISQDDYWGQGTQVTVSS”, which “polyreactivity (PSR sort gate)” value is on record?
Its value is “high polyreactivity”.

With “QVQLVESGGGLVQAGGSLRLSCAASGSTFDYYPMGWYRQAPGKERELVAAITYSGGRTSYADSVKGRFTISRDNAKNTVYLQMNSLKPEDTAVYYCAAVYDGQYYASYSTYDYDYWGQGTQVTVSS” as the sequence, how does the “polyreactivity (PSR sort gate)” value read?
Its value is “low polyreactivity”.

For “QVQLVESGGGLVQAGGSLRLSCAASGSTFEDNTMGWYRQAPGKERELVAAISNSGGSTYYADSVKGRFTISRDNAKNTVYLQMNSLKPEDTAVYYCAADFYDPFDYWGQGTQVTVSS”, which “polyreactivity (PSR sort gate)” value is on record?
Its value is “low polyreactivity”.

With “QVQLVESGGGLVQAGGSLRLSCAASGSTFEDYAMGWYRQAPGKERELVAVITGNGGSTNYADSVKGRFTISRDNAKNTVYLQMNSLKPEDTAVYYCAADFYTFVRSDYWGQGTQVTVSS” as the sequence, how does the “polyreactivity (PSR sort gate)” value read?
The value was “low polyreactivity”.

With “QVQLVESGGGLVQAGGSLRLSCAASGSTFEFYAMGWYRQAPGKERELVAAISSIGGSTYYADSVKGRFTISRDNAKNTVYLQMNSLKPEDTAVYYCAATSDSSLYVYWGQGTQVTVSS” as the sequence, how does the “polyreactivity (PSR sort gate)” value read?
Its value is “low polyreactivity”.

With “QVQLVESGGGLVQAGGSLRLSCAASGSTFEKNAMGWYRQAPGKERELVAAISNGVSTYYADSVKGRFTISRDNAKNTVYLQMNSLKPEDTAVYYCAADLFFGAETVYYDKFDYWGQGTQVTVSS” as the sequence, how does the “polyreactivity (PSR sort gate)” value read?
The value was “low polyreactivity”.

For “QVQLVESGGGLVQAGGSLRLSCAASGSTFENNVMGWYRQAPGKERELVATITWGDGSTSYADSVKGRFTISRDNAKNTVYLQMNSLKPEDTAVYYCAADDRIGYGKNKDHDYWGQGTQVTVSS”, which “polyreactivity (PSR sort gate)” value is on record?
Its value is “low polyreactivity”.

For “QVQLVESGGGLVQAGGSLRLSCAASGSTFEPNAMGWSRQEPGKERELVASITSSGGSTYYADSVKGRFTISRDNAKNTVYLQMKSLKPEDTAVYYCNARVPPQGWGPWKAFDYWGQGTQVTVSS”, which “polyreactivity (PSR sort gate)” value is on record?
The value was “low polyreactivity”.

For “QVQLVESGGGLVQAGGSLRLSCAASGSTFEQYAMGWYRQAPGKERELVAAISGSGTRTYYADSVKGRFTISRDNAKNTVYLQMNSLKPEDTAVYYCAARFSYPAIHQAYYHWGQGTQVTVSS”, which “polyreactivity (PSR sort gate)” value is on record?
Its value is “high polyreactivity”.

With “QVQLVESGGGLVQAGGSLRLSCAASGSTFERNTMGWYRQAPGKERELVASISRGDGTYADSVKGRFTISRDNAKNTVYLQMNSLKPEDTAVYYCAAVQRESGSDYDYWGQGTQVTVSS” as the sequence, how does the “polyreactivity (PSR sort gate)” value read?
Its value is “low polyreactivity”.

Which “polyreactivity (PSR sort gate)” value does the source give for “QVQLVESGGGLVQAGGSLRLSCAASGSTFERYAMGWYRQAPGKEREFVATINWGGGSTYYADSVKGRFTISRDNAKNTVYLQMNSLKPEDTAVYYCNAYVLYQSWRFSYDCWGQGTQVTVSS” here?
Its value is “low polyreactivity”.

For “QVQLVESGGGLVQAGGSLRLSCAASGSTFERYVMGWYRQRQGKKWSWLPVLNHNGGSTYYADSVKGRFTISRDNAKNSVYLQMNSRKPEYTAVYYCAKDGLNESQFPGNLRDYWGQGTQVNVSS”, which “polyreactivity (PSR sort gate)” value is on record?
Its value is “low polyreactivity”.

Which “polyreactivity (PSR sort gate)” value does the source give for “QVQLVESGGGLVQAGGSLRLSCAASGSTFESNAMGWYRQAPGKERELVAAISRGRTNYADSVKGRFTISRDNAKNTVYLQMNSLKPEDTAVYYCAADGLSNVRQMDYWGQGTQVTVSS” here?
Its value is “low polyreactivity”.

With “QVQLVESGGGLVQAGGSLRLSCAASGSTFESYAMGWYRQAPGKERELVAAISGRVGSTYYADSVKGRFTISRDNAKNTVYLQMNSLKPEDTAVYYCASKGWYSHYGGYDYWGQGTQVTVSS” as the sequence, how does the “polyreactivity (PSR sort gate)” value read?
The value was “low polyreactivity”.

Which “polyreactivity (PSR sort gate)” value does the source give for “QVQLVESGGGLVQAGGSLRLSCAASGSTFEVYAMGWYRQAPGTERELVAVITNSGTSTNYADSVKGRFTISRDNAKNTVYLQMTSLKPEDTAVYYCAADVEWTSRGSYYRYYYWGQGTQVTVSS” here?
Its value is “low polyreactivity”.

With “QVQLVESGGGLVQAGGSLRLSCAASGSTFEYNAMGWYRQAPGKERELVASSTNYADSVKGRFTISLDNAKNTVYLQMNSLKPEDTAVYYCAREQGVNRNHDYWGQGTQVNVSS” as the sequence, how does the “polyreactivity (PSR sort gate)” value read?
The value was “low polyreactivity”.

For “QVQLVESGGGLVQAGGSLRLSCAASGSTFFANTMGWYRQAPGKERELVAAIRDSGGSTYYADSVKGRFTISRDNSKNTVYLQMNSLKPEDTAVYYCSARYLVYGYPYRFYYWGQGTQVTVSS”, which “polyreactivity (PSR sort gate)” value is on record?
Its value is “high polyreactivity”.

For “QVQLVESGGGLVQAGGSLRLSCAASGSTFFDNAMGWYRQAPGKERELVAAISWSGARTYYADSVKGRFTISRDNAKNTVYLQMNSLKPEDTAVYYCAARFYVSNSRKSARNYWGQGTQVTVSS”, which “polyreactivity (PSR sort gate)” value is on record?
Its value is “high polyreactivity”.

With “QVQLVESGGGLVQAGGSLRLSCAASGSTFFDYAMGWYRQAPGKERELVAVISDGGTTTYADSVKGRFTISRDNAKNTVYLQMNSLKPVDTAVYYCAAENQDGLLVILGGYGYWGQGTQVTVSS” as the sequence, how does the “polyreactivity (PSR sort gate)” value read?
Its value is “low polyreactivity”.

Which “polyreactivity (PSR sort gate)” value does the source give for “QVQLVESGGGLVQAGGSLRLSCAASGSTFFEYTMGWYRQAPGKEREFVADIRGRDGSTSYADSVKGRFTISRDNAKNTVYLQMKSLKPEDTAVYYCGADVSDWWSFGNDSWGHGTQVTVSS” here?
The value was “low polyreactivity”.

Which “polyreactivity (PSR sort gate)” value does the source give for “QVQLVESGGGLVQAGGSLRLSCAASGSTFFEYTMGWYRQAPGKEREFVADIRGRDGSTSYADSVKGRFTISRDNAKNTVYLQMNSLKPEDTAVYYCAADVSDWWSFGNDSWGQGTQVTVSS” here?
The value was “low polyreactivity”.

Which “polyreactivity (PSR sort gate)” value does the source give for “QVQLVESGGGLVQAGGSLRLSCAASGSTFFFNEMGWYRQAPGKEREVVAAITGRSGSTYYADSVKGRFTISRDNANNTDYLQMNSLKPEDNAVYYCAGDYSPWRSDFDYWGQGTQVTVSS” here?
Its value is “low polyreactivity”.

For “QVQLVESGGGLVQAGGSLRLSCAASGSTFFGNAMGWYRQAPGKERELVAVITKGGGSTYYADSVKGRFTISRDNAKNTVYLQMNSLKPEDTAVYYCAKTYTSGYHRRYDYWGQGTQVTVSS”, which “polyreactivity (PSR sort gate)” value is on record?
The value was “low polyreactivity”.

For “QVQLVESGGGLVQAGGSLRLSCAASGSTFFHYAMGWYRQAPGKERELVAAIDSNGGSTYYADSVKGRFTISRDNAKNTVYLQMNSLKPEVTAVYYCAADDLAEFEYDYWGLGTQVTVSS”, which “polyreactivity (PSR sort gate)” value is on record?
Its value is “low polyreactivity”.

With “QVQLVESGGGLVQAGGSLRLSCAASGSTFFIYAMGWYRQAPGKERELVAAISGSGGTTYYADSVKGRFTISRDNAKNTVYLQMNSLKPEDTAVYYCAARTFSAFWRGGYDYWGQGTQVTVSS” as the sequence, how does the “polyreactivity (PSR sort gate)” value read?
The value was “low polyreactivity”.

For “QVQLVESGGGLVQAGGSLRLSCAASGSTFFKNAMGWYRQAPGKESELVAGISYGGGRTYYADSVKGRFTISRDNAKNTVYLQMKSLKPEDTAVYYCNTVTSPAPYYSYDSWGQGTQVTVSS”, which “polyreactivity (PSR sort gate)” value is on record?
Its value is “high polyreactivity”.

With “QVQLVESGGGLVQAGGSLRLSCAASGSTFFLYGRGWYRQARGKERELVATISKRGGSTHYADSVKGRFTISRDNAKNTVYVQKHSLKPEDTAVYYCAAGRPGVSFKEWSYKPSSSYDYWGQGTQVTVSS” as the sequence, how does the “polyreactivity (PSR sort gate)” value read?
Its value is “low polyreactivity”.

With “QVQLVESGGGLVQAGGSLRLSCAASGSTFFLYSMGWYRPAPGKERELVAAINYIGGTYYADSVKGRFTISRDNAKNTVYLQMNSLKPEDTAVYYCAASYVGTIAGMDYWGQGTQVTVSS” as the sequence, how does the “polyreactivity (PSR sort gate)” value read?
The value was “low polyreactivity”.

For “QVQLVESGGGLVQAGGSLRLSCAASGSTFFPNAMGWYRQAPGKEREFVAAISWSGGRTYYADSVKGRFTISRDNAKNTVYLQMNSLKPEDTAVYYCAARLYTVRYGYWGQGTQVTVSS”, which “polyreactivity (PSR sort gate)” value is on record?
The value was “high polyreactivity”.

For “QVQLVESGGGLVQAGGSLRLSCAASGSTFFPNGMGWYRQAPGKERELVAAITQDGGSTYYADSVKGRFTISRDNAKNTVYLQMNSLKPEDTAVYYCAASAGPYYEYGYWGQGTQVTVSS”, which “polyreactivity (PSR sort gate)” value is on record?
The value was “low polyreactivity”.

For “QVQLVESGGGLVQAGGSLRLSCAASGSTFFPYAMGWYRQAPGKERELVATINYSGGGTYYADSVKGRFTISRDNAKNTGYLQMNSLKPEDTAVYYCAKTLARFDRGYYWGQGTQVTVSS”, which “polyreactivity (PSR sort gate)” value is on record?
Its value is “low polyreactivity”.

Which “polyreactivity (PSR sort gate)” value does the source give for “QVQLVESGGGLVQAGGSLRLSCAASGSTFFRNAMGWYRQAPGKERELVAAISGSGNTYYADSVKGRFTISRDNAKNTVYLQMNSLKPEDTAVYYCADDVVYWYFHYDYWGQGTQVTVSS” here?
Its value is “low polyreactivity”.

With “QVQLVESGGGLVQAGGSLRLSCAASGSTFFRYAMGLYRQAPGKEREFVAAITWSGTGTYYADSVKGRFTISRDNAKNTVYLQMNSLKPEDTAVYYCAARRSSNVRRDYWGQGTQVTVSS” as the sequence, how does the “polyreactivity (PSR sort gate)” value read?
Its value is “high polyreactivity”.

For “QVQLVESGGGLVQAGGSLRLSCAASGSTFFRYAMGWYRQAPGKEREFVAAITSSGGNTYYADSVKGRFTISRDNAKNTVYLQMNSLKPEDTAVYYCADVWYSPYVKYNYWGQGTQVTVSS”, which “polyreactivity (PSR sort gate)” value is on record?
The value was “low polyreactivity”.

With “QVQLVESGGGLVQAGGSLRLSCAASGSTFFRYAMGWYRQAPGKERELVAAISWSGGTTYYADSVKGRFSISRDNAKNTVYLQMNSLKPEDTAVYFCNAVRQGHILDYWGQGTQVTVSS” as the sequence, how does the “polyreactivity (PSR sort gate)” value read?
The value was “low polyreactivity”.

With “QVQLVESGGGLVQAGGSLRLSCAASGSTFFRYAMVWYRQAPGKERELVAAITWTGGDTYYEDSVKVRFTISRDNAMNTVYLKMNSLKPEDTAVYYCNKRLDSYYLPGFDYWGQGTQVTVSS” as the sequence, how does the “polyreactivity (PSR sort gate)” value read?
The value was “low polyreactivity”.

Which “polyreactivity (PSR sort gate)” value does the source give for “QVQLVESGGGLVQAGGSLRLSCAASGSTFFYKAMGWYRPAPGKERELVAVISSRGTSTYYADSVKGRFTISRDNAKNTVYLQMNSLKPEDTAVYYCAAVQIRHTATLLHKPGYYWGQGTQVTVSS” here?
Its value is “high polyreactivity”.

With “QVQLVESGGGLVQAGGSLRLSCAASGSTFFYNAMGWSRQAPGKERELVASINDRAGRTYYADSVKGRFSISRDNAKNTVYLQMNSLKPEDTAVYYCAAEPWYKFDDDFWGQGTQVTVSS” as the sequence, how does the “polyreactivity (PSR sort gate)” value read?
Its value is “low polyreactivity”.

For “QVQLVESGGGLVQAGGSLRLSCAASGSTFFYNAMGWYRKAPGKERELVAAITGSGTRTYYADSVKGRFTISRDNAKNTVYLQMNSLKPEDTAVYYCAKYPHPLKYRGYPSEFDYWGQGTQVTVSS”, which “polyreactivity (PSR sort gate)” value is on record?
Its value is “low polyreactivity”.

With “QVQLVESGGGLVQAGGSLRLSCAASGSTFFYNAMGWYRQAPGKERELVAAISWSGGRTYYADSVKGRFTISRDNAKNTVYLQMNSLKPEDTAVYYCNTVVSKYYKVGFGSWGHGTQVTVSS” as the sequence, how does the “polyreactivity (PSR sort gate)” value read?
Its value is “high polyreactivity”.

Which “polyreactivity (PSR sort gate)” value does the source give for “QVQLVESGGGLVQAGGSLRLSCAASGSTFFYNAMGWYRQAPGKERELVAGITSGGSTYYADSVKGRFTISRDNAKNTVYLQMNSLKPEDTAVYYCAVDVPPWDYDYWGQGTQVTVSS” here?
Its value is “low polyreactivity”.

Which “polyreactivity (PSR sort gate)” value does the source give for “QVQLVESGGGLVQAGGSLRLSCAASGSTFFYYAMGWYRQAPGKERELVAGITSGASTTYADSVKGRFTISRDNAKNNVYLQMNSLKPEDTAVYYCAADHVESSWSDYDYWGQGTQVTVSS” here?
The value was “low polyreactivity”.
